From PMC12538056, “The effects of naturally occurring mutations on functionality of oxylipin metabolizing dehydrogenase reductase nine” (The Journal of Biological Chemistry, 2025)

Molecular target: the molecule itself
Experiment: not stated; purified water-soluble DHRS9 in solution; the method is shown only in Fig. S3

B1: water-soluble form of mouse DHRS9 (dehydrogenase reductase 9) lacking the N-terminal transmembrane segment (enzyme, UniProt Q58NB6 17-319, looked up)
chain: NYKGQLKIADIADKYVFITGCDTGFGNLAARTFDKKGFRVIAACLTESGSAALKAKTSERLHTVLLDVTDPENVKKTAQWVKSHVGEKGLWGLINNAGVLGVLAPTDWLTVDDYREPIEVNLFGLINVTLNMLPLVKKARGRVINVSSIGGRLAFGGGGYTPSKYAVEGFNDSLRRDMKAFGVHVSCIEPGLFKTELADPIKTTEKKLAIWKHLSPDIKQQYGEGYIEKSLHRLKSNTSSVNLDLSLVVGCMDHALTSLFPKTRYIAGKDAKTFWIPLSHMPAVLQDFLLLKQKVELANPKAV
notes: mouse DHRS9 lacking the first 16 amino acids that form the transmembrane segment; residues 17 to 319; cDNA made by RT-PCR from mouse skin; Crystallised in complex with NADH; In the model, residues 21-319 (chain A) and 22-319 (chain B) are seen; the tag and residues 17-20/21 could not be located; also called soluble form of DHRS9; truncated DHRS9 protein; not shown: His10, N-terminal, kept
  stoichiometry N: 2
